From US20240043542A1 (published 2024)
Positions count from the first letter of the chain named.

T1: human B7-H4 on the cell surface (human, UniProt Q7Z7D3 25-282)
T1 construct: full-length human B7-H4 on transfected HEK293T cells or endogenous on SK-BR-3 cells; also called SK-BR-3 (endogenous human B7-H4)
T1 sequence: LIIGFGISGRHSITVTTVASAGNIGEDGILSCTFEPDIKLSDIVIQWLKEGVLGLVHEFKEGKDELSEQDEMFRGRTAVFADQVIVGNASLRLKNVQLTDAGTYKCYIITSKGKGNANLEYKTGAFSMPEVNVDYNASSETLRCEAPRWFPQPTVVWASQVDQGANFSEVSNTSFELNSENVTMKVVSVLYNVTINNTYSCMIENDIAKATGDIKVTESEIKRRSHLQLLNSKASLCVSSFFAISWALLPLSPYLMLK

T2: mouse B7-H4 on the cell surface (mouse, UniProt Q7TSP5 25-257)
T2 construct: full-length, on transfected HEK293T cells
T2 sequence: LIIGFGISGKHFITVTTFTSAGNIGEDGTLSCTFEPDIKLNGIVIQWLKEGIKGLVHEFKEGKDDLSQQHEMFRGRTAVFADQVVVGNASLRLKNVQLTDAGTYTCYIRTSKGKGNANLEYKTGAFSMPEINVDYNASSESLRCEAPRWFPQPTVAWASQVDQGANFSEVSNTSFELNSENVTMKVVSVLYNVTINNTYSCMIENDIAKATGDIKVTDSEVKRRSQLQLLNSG

T3: cynomolgus monkey B7-H4 on the cell surface (cynomolgus monkey, UniProt Q7Z7D3 25-282 (human entry))
T3 construct: full-length, on transfected HEK293T cells
T3 chain: T1 sequence with L53I, F242L, S252A

T4: mouse B7-H4 (recombinant, BLI) (mouse, UniProt Q7TSP5 29-256, limits assumed)
T4 construct: also called murine B7-H4
T4 sequence: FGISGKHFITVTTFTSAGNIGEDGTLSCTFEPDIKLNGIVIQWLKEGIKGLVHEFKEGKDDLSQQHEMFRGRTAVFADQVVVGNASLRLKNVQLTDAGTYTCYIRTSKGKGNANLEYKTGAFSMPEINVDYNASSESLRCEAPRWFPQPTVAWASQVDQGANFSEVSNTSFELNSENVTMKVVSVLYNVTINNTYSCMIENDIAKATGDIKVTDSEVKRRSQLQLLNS

T5: cynomolgus monkey B7-H4 (recombinant, BLI) (cynomolgus monkey, UniProt Q7Z7D3 25-259 (human entry))
T5 construct: also called Cynomolgus B7-H4
T5 sequence: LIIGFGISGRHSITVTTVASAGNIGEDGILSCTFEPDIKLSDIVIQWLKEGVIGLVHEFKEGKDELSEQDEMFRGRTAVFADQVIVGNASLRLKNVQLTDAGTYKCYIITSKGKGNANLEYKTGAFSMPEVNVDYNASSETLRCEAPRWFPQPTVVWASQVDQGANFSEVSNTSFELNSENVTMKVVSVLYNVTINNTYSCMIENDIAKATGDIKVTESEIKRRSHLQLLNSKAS

B1: B7-H4 antibody 20496 (antibody, human IgG1, kappa, V domains shown)
VH: QLQLQESGPGLVKPSETLSLTCTVSGGSISSSVYYWSWIRQPPGKGLEWIGSILVSGSTYYNPSLKSRVTISVDTSKNQFSLKLSSVTAADTAVYYCARAVSFLDVWGQGTMVIVSS
VL: DIQMTQSPSSLSASVGDRVTITCRASQSISSYLNWYQQKPGKAPKLLIYGASSLQSGVPSRFSGSGSGTDFTLTISSLQPEDFATYYCQQSYDPPWTFGGGTKVEIKR
notes: human IgG1/kappa
B2: B7-H4 antibody 15472 (antibody, human IgG1, kappa, V domains shown)
VH: EVQLLESGGGLVQPGGSLRLSCAASGFTFSSYAMSWVRQAPGKGLEWVSTISGSGGSTYYADSVKGRFTISRDNSKNTLYLQMNSLRAEDTAVYYCARGAGHYDLVGRYWGQGTLVTVSS
VL: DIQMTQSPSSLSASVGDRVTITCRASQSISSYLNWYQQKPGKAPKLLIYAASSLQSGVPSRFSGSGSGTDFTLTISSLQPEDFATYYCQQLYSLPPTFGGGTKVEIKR
notes: human IgG1/kappa
B3: B7-H4 antibody 15483 (antibody, human IgG1, kappa, V domains shown)
VH: QVQLQESGPGLVKPSQTLSLTCTVSGGSISSGGYYWSWIRQHPGKGLEWIGNIYYSGSTYYNPSLKSRVTISVDTSKNQFSLKLSSVTAADTAVYYCARGLSTIDEAFDPWGQGTLVTVSS
VL: not shown
notes: human IgG1/kappa
B4: B7-H4 antibody 15489 (antibody, human IgG1, kappa, V domains shown)
VH: QVQLQESGPGLVKPSETLSLTCTVSGGSISSYYWSWIRQPPGKGLEWIGYIYSSGSTNYNPSLKSRVTISVDTSKNQFSLKLSSVTAADTAVYYCARGSGQYAAPDYGMDVWGQGTTVTVSS
VL: DIQMTQSPSTLSASVGDRVTITCRASQSISSWLAWYQQKPGKAPKLLIYKASSLESGVPSRFSGSGSGTEFTLTISSLQPDDFATYYCQQDNSFPFTFGGGTKVEIKR
notes: human IgG1/kappa
B5: B7-H4 antibody 20513 (antibody, human IgG1, kappa, V domains shown)
VH: B3 VH with V2L, Q16E, S31D, G33S, K66R, I71M
VL: not shown
notes: human IgG1/kappa
B6: B7-H4 antibody 20516 (antibody, human IgG1, kappa, V domains shown)
VH: B4 VH with S30I, S35G, N58S, Q101L, M109L
VL: B4 VL
notes: human IgG1/kappa
B7: B7-H4 antibody 20506 (antibody, V domains shown)
VH: QLQLQESGPGLVKPSETLSLTCTASGGSISHGGYYWSWIRQHPGKGLEWIGNIYYSGSTYYNPSLKSRVTMSVDTSKNQFSLKLSSVTAADTAVYYCARESSTISADFDLWGRGTLVTVSS
VL: DIQMTQSPSSVSASVGDRVTITCRASQGISRWLAWYQQKPGKAPKLLIYAASSLQSGVPSRFSGSGSGTDFTLTISSLQPEDFATYYCQQAHTFPYTFGGGTKVEIKR
notes: human IgG1/kappa
B8: B7-H4 antibody 20502 (antibody, V domains shown)
VH: QLQLQESGPGLVKPSETLSLTCTVSGGSIKSGSYYWGWIRQPPGKGLEWIGNIYYSGSTYYNPSLRSRVTISVDTSKNQFSLKLSSVTAADTAVYYCAREGSYPNQFDPWGQGTLVTVSS
VL: EIVMTQSPATLSVSPGERATLSCRASQSVSSNLAWYQQKPGQAPRLLIYGASTRATGIPARFSGSGSGTEFTLTISSLQSEDFAVYYCQQYHSFPFTFGGGTKVEIKR
notes: human IgG1/kappa
B9: B7-H4 antibody 22216 (antibody, human IgG1, kappa, V domains shown)
VH: B3 VH with S31D, G33S, K66R, I71M
VL: B4 VL with Q27K, K50E, E55H, F94Y, F96Y
notes: human IgG1/kappa
B10: B7-H4 antibody 22208 (antibody, human IgG1, kappa, V domains shown)
VH: B8 VH with Y34H, R66K, I71M, Q106W
VL: B8 VL with S31T, G50D, T53A, A55V
notes: human IgG1/kappa

What follows are binders tested against T1, human B7-H4 on the cell surface (assay: flow cytometry, SK-BR-3 cells).
Description: (§1) Following incubation, cells were pelleted, washed and incubated with a secondary labeling antibody and samples were acquired on a flow cytometer. Data was analyzed using the FlowJo software and MFI was plotted vs. antibody concentration. The EC50 cell binding potency was calculated using nonlinear regression curve fit (GraphPad Prism).

EC50 | Binder
7.6 nM | B1
8.86 nM | B2
14.8 nM | B3
31.7 nM | B4

The binders below were run against T1, human B7-H4 on the cell surface (assay: cell-based or functional assay).

Donor 1 Max IFNγ | Donor 2 Max IFNγ | Donor 3 Max IFNγ | Donor 4 Max IFNγ | aAPC Assay EC50 (IFNγ production) | Binder
186 pg/mL | – | – | – | – | B1
659 pg/mL | 240 pg/mL | 91.1 pg/mL | 1630 pg/mL | 1.16 nM | B5
– | 441 pg/mL | – | – | – | B6
981 pg/mL | 259 pg/mL | 86.1 pg/mL | 2300 pg/mL | 1.25 nM | B7

What follows are binders tested against T6, B7-H4 IgV-huIgG1 (human) (assay: SPR, antibody captured by anti-human Fab, antigen in flow).
T6 construct: also called N-terminal domain of human B7-H4
Description: Briefly, anti-human Fab antibody was immobilized on a carboxyl-derivatized SPR chip surface, and anti-B7-H4 antibodies were captured on the resulting surface at 5 ug/ml for 30 seconds.

Kd | koff | kon | Binder
18.4 nM | – | – | B3
2.03 nM | 0.000361 s⁻¹ | 178000 M⁻¹ s⁻¹ | B8
23.7 nM | – | – | B4

Biological target: T1, human B7-H4 on the cell surface
Test: cell-based or functional assay
Remark: another data set of the same source

Donor 1 Max IFNγ | Donor 2 Max IFNγ | Donor 3 Max IFNγ | Donor 4 Max IFNγ | aAPC Assay EC50 (IFNγ production) | Binder
93.2 pg/mL | 87.8 pg/mL | 1380 pg/mL | 939 pg/mL | 729 nM | B3
82.5 pg/mL | 96.6 pg/mL | 1130 pg/mL | 800 pg/mL | 291 nM | B4

What follows are binders tested against T2, mouse B7-H4 on the cell surface (assay: flow cytometry, 100 nM, transfected HEK293T).
Description: (§2) HEK293T cell lines were transfected to express full-length human, cynomolgus monkey, mouse, or rat B7-H4. In addition, the endogenous human B7-H4 expressing SK-BR-3 breast cancer cell line was used to assess the ability of the antibodies to bind B7-H4 expressed on the cell surface. 1×10⁵ parental HEK293T or transfected HEK293T cell lines were incubated with 100 nM of the B7-H4 antibodies. Following incubation, cells were pelleted, washed, and incubated with a secondary labeling antibody, and samples were acquired on a flow cytometer. Fold binding over the parental cell line (FOP) was calculated as follows: MFI transfected HKE293T cells/MFI parental HEK293T cells.

FOP (fold binding over the parental cell line) | Binder
604 fold | B1
685 fold | B2

Each binder was assayed against T1, human B7-H4 on the cell surface (assay: flow cytometry, 100 nM, transfected HEK293T).
Description: as §2

FOP (fold binding over the parental cell line) | Binder
179 fold | B1
580 fold | B2

Biological target: T3, cynomolgus monkey B7-H4 on the cell …
Test: flow cytometry, 100 nM, transfected HEK293T
Description: as §2

FOP (fold binding over the parental cell line) | Binder
758 fold | B1
1280 fold | B2

What follows are binders tested against T2, mouse B7-H4 on the cell surface (assay: flow cytometry, transfected 293 cells).
Description: as §1

EC50 | Binder
6.7 nM | B1
8.82 nM | B3
17.5 nM | B4

Biological target: T3, cynomolgus monkey B7-H4 on the cell …
Test: flow cytometry, transfected 293 cells
Description: as §1

EC50 | Binder
7.91 nM | B1

What follows are binders tested against T7, recombinant human B7-H4-huIgG1 (human) (assay: BLI, antigen on Protein A tips;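 also: Anti-B7-H4 antibodies assessed for affinity toward the B7-H4 extracellular domain using biolayer interferometry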).
T7 construct: also called B7-H4-extracellular domain (ECD)
Description: (§3) Binding affinities of anti-B7-H4 antibodies to B7-H4-extracellular domain (ECD) were determined by biolayer interferometry (BLI). […] Anti-B7-H4 antibodies were then evaluated for binding.

Kd | koff | kon | Binder
0.805 nM | 0.000555 s⁻¹ | 689000 M⁻¹ s⁻¹ | B1
7.11 nM | 0.00497 s⁻¹ | 700000 M⁻¹ s⁻¹ | B2
3.98 nM | 0.0018 s⁻¹ | 453000 M⁻¹ s⁻¹ | B5
1.47 nM | 0.000359 s⁻¹ | 245000 M⁻¹ s⁻¹ | B9
1.2 nM | 0.00115 s⁻¹ | 936000 M⁻¹ s⁻¹ | B8
5.67 nM | 0.00104 s⁻¹ | 184000 M⁻¹ s⁻¹ | B10
63.7 nM | – | – | B4
18 nM | 0.00738 s⁻¹ | 410000 M⁻¹ s⁻¹ | B6
1.69 nM | 0.000746 s⁻¹ | 441000 M⁻¹ s⁻¹ | B7

What follows are binders tested against T4, mouse B7-H4 (recombinant, BLI) (assay: BLI, antigen on Protein A tips;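 also: Anti-B7-H4 antibodies assessed for affinity toward the B7-H4 extracellular domain using biolayer interferometry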).
Description: as §3

Kd | koff | kon | Binder
24.6 nM | 0.0171 s⁻¹ | 692000 M⁻¹ s⁻¹ | B1
38 nM | 0.016 s⁻¹ | 422000 M⁻¹ s⁻¹ | B2
4.57 nM | 0.00236 s⁻¹ | 517000 M⁻¹ s⁻¹ | B5
1.47 nM | 0.000359 s⁻¹ | 245000 M⁻¹ s⁻¹ | B9
263 nM | – | – | B3
3.4 nM | 0.00213 s⁻¹ | 632000 M⁻¹ s⁻¹ | B8
16.7 nM | 0.00167 s⁻¹ | 99500 M⁻¹ s⁻¹ | B10
201 nM | – | – | B4
41.4 nM | 0.0165 s⁻¹ | 398000 M⁻¹ s⁻¹ | B6
3.53 nM | 0.00164 s⁻¹ | 466000 M⁻¹ s⁻¹ | B7

What follows are binders tested against T5, cynomolgus monkey B7-H4 (recombinant, …) (assay: BLI, antigen on Protein A tips;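 also: Anti-B7-H4 antibodies assessed for affinity toward the B7-H4 extracellular domain using biolayer interferometry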).
Description: as §3

Kd | koff | kon | Binder
0.721 nM | 0.000569 s⁻¹ | 790000 M⁻¹ s⁻¹ | B1
7.8 nM | 0.00582 s⁻¹ | 746000 M⁻¹ s⁻¹ | B2
3.67 nM | 0.0018 s⁻¹ | 491000 M⁻¹ s⁻¹ | B5
1.47 nM | 0.000359 s⁻¹ | 245000 M⁻¹ s⁻¹ | B9
108 nM | – | – | B3
1.2 nM | 0.00112 s⁻¹ | 962000 M⁻¹ s⁻¹ | B8
5.44 nM | 0.00108 s⁻¹ | 199000 M⁻¹ s⁻¹ | B10
72.1 nM | – | – | B4
17.6 nM | 0.00783 s⁻¹ | 445000 M⁻¹ s⁻¹ | B6
1.48 nM | 0.000678 s⁻¹ | 458000 M⁻¹ s⁻¹ | B7
